Measurements taken from the supplement of paper PMC9170038.

System: MS2 coat protein
Assay: apparent KD of MS2 coat protein; designed switch direction (-1 OFF switch, 1 ON switch): -1; higher = weaker reporter binding
Method in brief: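 An oligonucleotide input, 200 uM small-molecule ligand, or no input was present during titration of SNAP-549-labelled MS2 coat protein, which was doubled from 0.7 or 1.5 nM to 3 µM. Designed RNA switches had been transcribed on Illumina chips by stalled E. coli RNA polymerase. Apparent KD per design is the median over clusters of curves fitted to normalised cluster fluorescence.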

[1] = Eterna round: R95, input ligand: FMN 200 uM
[2] = Eterna round: R95, input ligand: microRNA oligo, concentration not stated
[3] = Eterna round: R95, input ligand: none
[4] = input ligand: microRNA oligo, concentration not stated

| Sequence | apparent KD of MS2 coat protein [1] [nM] | apparent KD of MS2 coat protein [2] [nM] | apparent KD of MS2 coat protein [3] [nM] | apparent KD of MS2 coat protein (input ligand: FMN 200 uM) [nM] | apparent KD of MS2 coat protein [4] [nM] | apparent KD of MS2 coat protein (input ligand: none) [nM] |
| --- | --- | --- | --- | --- | --- | --- |
| AAAAAACAAGGAUAUACAAAAAAAAAAUGUGUUAAAAAUCCACAUGAGGAUCACCCAUGUAGAAGGUGUAAAAA [JR_Exclusion2_Sub004] (puzzle: Exclusion 2) | 81 | 104 | 172 | – | – | – |
| AAAAAACAUGAGGAUCACCCAUGUAAGGAUAUGCUGAAAAACACGGAAAAAACGUGCAGCAGAAGGUACAAAAG [Mat - Exclusion 1 - Eli mod - D90] (Eterna round: R96, puzzle: Exclusion 1) | – | – | – | 100 | 55 | 61.6 |
| AAAAAGGUAGGAUAUACGAAAAAAAAGGGUAGAAAAAAAACACAUGAGGAUCACCCAUGUAGAAGGACCAAAAU [salish99_ex2_r3_044] (puzzle: Exclusion 2) | 82.8 | 35.3 | 36.6 | – | – | – |
| AAAAAGUUGAGAGGAUAUGGUGCCGAAACGGUGCUAGAAGGCUUUACAAAAAAACAUGAGGAUCACCCAUGUUCAUGUAGAGAA [AK ExNG1-1.1] (Eterna round: R96, puzzle: Exclusion NG 1) | – | – | – | 16.3 | 13.3 | 15.6 |
| AAAAAUCGAGGAUAUACAUGAGGAUCACCCAUGUGGGACCAAGAAAACACAAAAGAAAGUAGAAGGCGAUAAAA [Ex 3 May 23] (Eterna round: R96, puzzle: Exclusion 3) | – | – | – | 110 | 25.8 | 31.7 |
| AAAACGGGAGGAUAUCGUAUCGUACACAUGAGGAUCACCCAUGUCCGGUGCAUCCUCAUCCGAGAAGGCCCAUAAA [Inisrarier] (puzzle: Exclusion 5) | 25.8 | 31.4 | 25.9 | – | – | – |
| AAAAGAAAAGUAGGAUAUGUGAAAGGAAGUGUAACAGAAGGACUGUGGGUCUUCCGACAUGAGGAUCACCCAUGUAAAAGAAAA [PowerStrip EXNG 1.8] (Eterna round: R96, puzzle: Exclusion NG 1) | – | – | – | 114 | 6.35 | 53.9 |
| AAAAGAAAGGGAGGAUAUCUGACGGGAUACCAAAGAGAAGGCCCAGGCACAUGAGGAUCACCCAUGUUCGUGCGCCUACUUAAC [Enveri] (Eterna round: R96, puzzle: Exclusion NG 1) | – | – | – | 28.3 | 9.73 | 14.4 |
| AAAAGAACAGGAUAUUCGUGAAAUAACAUGAGGAUCACCCAUGUUAACGCGGGUGAGAACGAAGAAGGGUUCUAAA [Ceries] (puzzle: Exclusion 5) | 121 | 42.1 | 61.4 | – | – | – |
| AAAAGAAUAGGAUAUACAUGAGGAUCACCCAUGUGAGGGCACGGCCGGCGCGGGCCCGGUAGAAGGAUUCAAAA [Exc;s3-X] (puzzle: Exclusion 3) | 23.1 | 22.5 | 25.6 | – | – | – |
| AAAAGACAUGAGGAUCACCCAUGUGAGGAUAUUGGAAGAAAGAAAAGAAAGAAAGAAACGAGAAGGCACAAAAG [Exclusion] (puzzle: Exclusion 1) | 68.2 | 60.9 | 51.9 | – | – | – |
| AAAAGCCAAGGAUAUACAUGAGGAUCACCCAUGUAAGAAAUGGGCGCUACCGUUCCGUGUAGAAGGUGGGAAAA [Inuserce] (puzzle: Exclusion 3) | – | 26 | – | – | – | – |
| AAAAGCCAUGUUAGGAUAUGCAUGGCAGCUGCGAUGCAGAAGGAACAUGAGGAUCACCCAUGUGAACUUAAAUA [Anmaleus] (puzzle: Brourd's mod of Exclusion 4) | 21.2 | 16.2 | 18.3 | – | – | – |
